Assay results: patent US20200345845A1 (RUBIUS THERAPEUTICS, published 2020)
Values belong to the molecule of their own block, whether it stands above or below them.

Experiments:
[1] = target: PD-1 (UniProt Q15116); assay: cell-based or functional assay
[2] = target: CD20 (human) (UniProt P11836); assay: flow cytometry, RCT binding to Toledo cells
[3] = target: CD20 (human) (UniProt P11836); assay: flow cytometry, RCT binding to SU-DHL4 cells
[4] = target: CD20 (human) (UniProt P11836); assay: cell-based or functional assay
[5] = target: CD20 (human) (UniProt P11836); assay: flow cytometry, RCT binding to Granta-519 cells
[6] = target: CD20 (human) (UniProt P11836); assay: flow cytometry, RCT binding to Z138 cells
[7] = target: T1, CD20 (human, UniProt P11836 1-297); assay: immunofluorescence of co-culture with Ramos cells
T1 construct: whole, on cells; Endogenous CD20 on lymphoma cell lines; also called CD20 on CD20-expressing cell lines (Raji, Ramos, Z138, Granta-519, Toledo, SU-DHL4, DOHH-2)
T1 sequence (looked up): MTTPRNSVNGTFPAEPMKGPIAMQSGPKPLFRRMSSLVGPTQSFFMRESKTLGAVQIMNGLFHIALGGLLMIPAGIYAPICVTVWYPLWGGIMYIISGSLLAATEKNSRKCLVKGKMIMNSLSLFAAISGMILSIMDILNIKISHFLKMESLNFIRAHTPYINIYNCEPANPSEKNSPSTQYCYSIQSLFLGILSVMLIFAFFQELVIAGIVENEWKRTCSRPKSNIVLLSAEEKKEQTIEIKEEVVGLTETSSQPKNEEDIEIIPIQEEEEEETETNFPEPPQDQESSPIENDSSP

PD-1, sequence (Q15116 25-288 limits assumed): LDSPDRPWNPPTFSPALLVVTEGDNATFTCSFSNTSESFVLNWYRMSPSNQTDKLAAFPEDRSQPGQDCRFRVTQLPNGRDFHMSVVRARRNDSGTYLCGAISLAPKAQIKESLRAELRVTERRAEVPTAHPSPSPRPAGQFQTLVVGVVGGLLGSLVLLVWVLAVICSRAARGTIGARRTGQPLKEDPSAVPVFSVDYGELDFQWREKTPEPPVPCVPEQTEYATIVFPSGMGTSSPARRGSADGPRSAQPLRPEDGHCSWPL

interferon-gamma secretion of PBMC in an antigen recall assay [1]: 3 to 4 fold
Molecule: RCT-antiPD1: enucleated erythroid cells expressing a fusion protein of a pembrolizumab-based anti-PD-1 scFv domain, an epitope tag (HA or Flag) and full-length GPA

Percent cells bound [2]: 37.1%
Percent cells bound [3]: 91.3%
apoptosis of Ramos cells after 48 hours of co-culture [4]: 32%
Percent cells bound [5]: 76%
Percent cells bound [6]: 43.7%
Molecule: RCT-antiCD20: enucleated erythroid cells expressing on their surface a fusion protein of a rituximab CD20 scFv domain, an HA epitope tag and full-length GPA

binding result [7]: no binding
B1: RCT-HA-GPA: control enucleated erythroid cells expressing on their surface the HA epitope tag fused to the N terminus of full-length GPA (other, not shown: small tags and cut ends)
chain: LSTTEVAMHTSTSSSVTKSYISSQTNDTHKRDTYAATPRAHEVSEISVRTVYPPEEETGERVQLAHHFSEPEITLIIFGVMAGVIGTILLISYGIRRLIKKSPSDVKPLPSPDTDVPLSSVEIENPETSDQ
notes: also called HA-GPA control RCT; control RCT-HA-GPA
